Here are results for 1 molecule from patent publication US20230193513A1 (published 2023).

The target in the test is T1, flag-GLP1R-GFP expressed on CHO cells (UniProt P43220 24-463).
T1 chain: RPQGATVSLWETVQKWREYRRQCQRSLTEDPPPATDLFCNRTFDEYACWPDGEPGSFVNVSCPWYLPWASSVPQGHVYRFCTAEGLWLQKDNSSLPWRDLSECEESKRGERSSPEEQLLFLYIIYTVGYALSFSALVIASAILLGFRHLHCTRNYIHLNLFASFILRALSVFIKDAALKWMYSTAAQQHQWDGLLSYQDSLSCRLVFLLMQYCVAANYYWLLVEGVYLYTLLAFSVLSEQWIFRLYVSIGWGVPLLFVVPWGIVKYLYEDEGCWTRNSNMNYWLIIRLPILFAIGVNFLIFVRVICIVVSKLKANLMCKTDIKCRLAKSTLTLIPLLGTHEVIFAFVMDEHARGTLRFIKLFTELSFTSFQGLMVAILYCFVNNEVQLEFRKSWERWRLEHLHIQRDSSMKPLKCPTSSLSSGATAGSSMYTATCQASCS
The experiment in a line: FACS cell binding.

B1: GLP1R-242 (antibody)
heavy: QVQLVQSGAEVKKPGSSVKVSCKASGGTFSSYEISWVRQAPGQGLEWMGGIIPILGIANYAQKFQGRVTITADESTSTAYMELSSLRSEDTAVYYCAKHMSMQADTGTFTSDVSSYLEGQAAKEFIAWLVKGEFSSRADLVGDAFDVWGQGTLVTVSSASASTKGPSVFPLAPCSRSTSESTAALGCLVKDYFPEPVTVSWNSGALTSGVHTFPAVLQSSGLYSLSSVVTVPSSNFGTQTYTCNVDHKPSNTKVDKTVERKCCVECPPCPAPPVAGPSVFLFPPKPKDTLMISRTPEVTCVVVDVSHEDPEVQFNWYVDGVEVHNAKTKPREEQFNSTFRVVSVLTVVHQDWLNGKEYKCKVSNKGLPAPIEKTISKTKGQPREPQVYTLPPSREEMTKNQVSLTCLVKGFYPSDIAVEWESNGQPENNYKTTPPMLDSDGSFFLYSKLTVDKSRWQQGNVFSCSVMHEALHNHYTQKSLSLSPG
light: QSVLTQPPSVSAAPGQKVTISCSGSSSNIENNDVSWYQQLPGTAPKLLIYGNDQRPSGIPDRFSGSKSGTSATLGITGLQTGDEADYYCGTWDNTLSAGVFGGGTKLTVLGQPKAAPSVTLFPPSSEELQANKATLVCLISDFYPGAVTVAWKADSSPVKAGVETTTPSKQSNNKYAASSYLSLTPEQWKSHRSYSCQVTHEGSTVEKTVAPTECS
In general, EC50 refers to the concentration that produces a half-maximal response. Molecule B1 yielded an EC50 of 27.7 nM.
